In publication PMC4709122 (Nature structural & molecular biology, 2015):

What was measured:
Test in all cases: fluorescence polarisation
[1] = target: UBC9–SUMO2^B non-covalent complex (human, UniProt P63279;P61956)
[2] = target: SUMO2 (construct not stated for this experiment) (human, UniProt P61956 1-95)
[3] = target: UBC9 (human SUMO E2, untagged) (human, UniProt P63279 1-158)
Chain of UBC9 (human SUMO E2, untagged) (P63279 whole entry): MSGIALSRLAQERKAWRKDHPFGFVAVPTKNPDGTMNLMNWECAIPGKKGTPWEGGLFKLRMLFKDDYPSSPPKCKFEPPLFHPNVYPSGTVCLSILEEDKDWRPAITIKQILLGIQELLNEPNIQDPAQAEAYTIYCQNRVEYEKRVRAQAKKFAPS

B1: Alexa488-labeled CysZNF451(2–56) (domain or fragment)
chain: CGDPGSEIIESVPPAGPEASESTTDENEDDIQFVSEGPLRPVLEYIDLVSSDDEEP
modifications: Alexa488-maleimide on the single engineered N-terminal cysteine
[1]
  Kd: 2 µM
[2]
  Kd: 120 to 150 µM
[3]
  Kd: 10 to 16 µM
